Results reported in patent US20200397860A1, “SLIT AND BONE GROWTH MODULATION” (Cornell University, priority 2018, published 2020).
Entries after “also recorded” stand apart in the source; their conditions may differ.

What was measured:
fracture site = experiment: Femoral fracture model, local delivery of SLIT3 into the fracture site; format: in vivo, mouse
Protocol: (§1) Micro-CT (μCT) analysis was conducted on a Scanco Medical μCT 35 system at the Citigroup Biomedical Imaging Core using the previously described parameters. (Shim et al. 2013). μCT analysis was performed by an investigator blinded to the genotypes of the animals under analysis.
For whole-mount immunostaining, retinas were collected from adult mice after systemic or local SLIT3 administration in bone fracture models.
(§2) Bone fracture was done following previously described protocols with modifications (Bradaschia-Correa et al. 2017). In brief, after anesthesia and surgical site sterilization, an incision above the right anterolateral femur was made. The femur and patella were then exposed, and a 27-gauge syringe needle was inserted parallel with the long axis of the femur through the patellar groove into the marrow cavity. The needle was then removed, and a single cut was made in the middle of the femoral diaphysis using a dremel saw with a diamond thin cutting wheel (VWR, Cat #100230-724). A blunt 25-gauge needle was then inserted into the marrow space through the hole made in the patella to stabilize the fracture. The needle was then trimmed to avoid it from projecting into the patella-femoral joint space. Muscle was then placed over the osteotomy site and stitched with absorbable sutures prior to closing the skin with wound clips.
(§3) Alternatively, the gelatin sponge was manually soaked with SLITS (300 ug/ml in PBS) or vehicle for 1 hour on ice and immediately placed to the surgical fracture area. All animals were euthanized by CO2 at time points indicated.
(§4) All bones were tested to failure using four-point bending on a precision electromagnetic-based load frame (EnduraTEC ELF 3200, Bose Corporation, Minnetonka, MC). Femurs were placed with the posterior surface on the lower supports, spaced 9.9 mm apart. The upper supports were spaced 3.3 ram. Load was applied at a rate of 0.1 mm/s until failure occurred. The failure load (N) and bending stiffness […] within the elastic range were calculated from the force-displacement curves and the four-point dimensions.

[1] = test system: bone marrow endothelial progenitor outgrowth cells (EPOCs); experiment: Matrigel tube formation assay; format: cell-based, mouse; conditions: for tube formation (tube branch numbers): EPOCs on Matrigel
Protocol: Mouse bone marrow derived late-stage endothelial progenitor outgrowth cells (EPOCs) were obtained from BioChain (7030031) and cultured in growth medium (BioChain Z7030035) as described previously (Xie et al. 2014). Endothelial cell migration assay was set up in Trans well-24 well plates with 8-um pore filters. Briefly, 1×10^5 cells/well after 1-hour serum starvation were seeded in the upper chamber, then incubated with conditioned medium from osteoblasts and control in the lower chambers for a further 3 h. The cells in the upper surface of each filter were removed with cotton swabs. The cells that migrated into the lower surface were fixed with 4% PFA for 30 min and then stained with crystal violet. The cell numbers were quantified by counting a centered microscope field per each filter (5 wells for each condition). Endothelial cell wound healing assays were conducted in 12-well plates precoated with gelatin (Stemcell Technologies). 3×10^5 cells/well were plated overnight and stimulated with a wound in the form of a single linear scratch made with a yellow pipette tip. After gently washing the well twice, cells were cultured in medium with SLIT3 or vehicle. At 6 and 12 hours after injury, cells were stained by 0.5% crystal violet and photographed. The width of the wound area was quantitatively evaluated using ImageJ (see website at rsb.info.uih.gov/ij/download.html). Endothelial cell proliferation assays were conducted in 96-well plates pre-coated with gelatin (Stemcell Technologies). EPOCs (3×10^4 cells/well) were seeded in the medium with a serial dilution of SLIT3 protein or vehicle in plates. At 0, 24, 48 hours after seeding, cells were incubated with 10-fold diluted Alamar Blue solution (Thermo Fisher) and the supernatant was evaluated with a spectrophotometer (Thermo) (5 wells for each condition). Endothelial cell tube formation assay was conducted in 96-well plates pre-coated with Matrigel (BD). After 1 h serum starvation, EPOCs (3×10^4 cells/well) were seeded in conditioned medium dilution or control medium on polymerized Matrigel in plates. Alter 5 hours incubation at 37° C., the number of tube branches each well was observed and quantified by counting four random fields per well with microscopy (5 wells for each condition).

[2] = test system: bone marrow endothelial progenitor outgrowth cells (EPOCs); experiment: Endothelial cell wound healing (migration) assay; format: cell-based, mouse
Protocol: Mouse bone marrow derived late-stage endothelial progenitor outgrowth cells (EPOCs) were obtained from BioChain (7030031) and cultured in growth medium (BioChain Z7030035) as described previously (Xie et al. 2014). Endothelial cell migration assay was set up in Trans well-24 well plates with 8-um pore filters. Briefly, 1×10^5 cells/well after 1-hour serum starvation were seeded in the upper chamber, then incubated with conditioned medium from osteoblasts and control in the lower chambers for a further 3 h. The cells in the upper surface of each filter were removed with cotton swabs. The cells that migrated into the lower surface were fixed with 4% PFA for 30 min and then stained with crystal violet. The cell numbers were quantified by counting a centered microscope field per each filter (5 wells for each condition). […] The width of the wound area was quantitatively evaluated using ImageJ (see website at rsb.info.uih.gov/ij/download.html). […] At 0, 24, 48 hours after seeding, cells were incubated with 10-fold diluted Alamar Blue solution (Thermo Fisher) and the supernatant was evaluated with a spectrophotometer (Thermo) (5 wells for each condition). […] Alter 5 hours incubation at 37° C., the number of tube branches each well was observed and quantified by counting four random fields per well with microscopy (5 wells for each condition).

[3] = test system: open femoral midshaft fracture; experiment: Open femoral midshaft fracture model, systemic IV SLIT3; format: in vivo, mouse
Protocol: as §1
For histological analysis, hindlimbs were dissected from the mice or human callus, fixed in 10% neutral buffered formalin for 24-48 hours, and decalcified by daily changes of 15% tetrasodium EDTA for 2 weeks. Tissues were dehydrated by passage through an ethanol series, cleared twice in xylene, embedded in paraffin, and sectioned at 7 μm thickness. Decalcified sections were stained with hematoxylin and eosin (H&E). We incubated the slides with primary antibody to mouse EMCN (sc-65495, Santa Cruz, 1:200) and human Slit3 (ab198726, Abcam 1:50) at 37° C. for 2 h and subsequently used a horseradish peroxidase-streptavidin detection system (Dako) to detect the immunoreactivity. The number and volume of positively stained vessels was measured in four random visual fields of callus in 3 sequential sections per mouse in each group.
All surgical procedures were performed under isoflurane (1-4%) anesthesia via nosecone. Surgical sites were sterilized using a betadine/iodide/isopropanol prep after hair removal by a clipper with a #40 blade and depilatory cream (Nair). After surgery, the visceral lining or muscle was sutured with absorbable Ethicon vicryl sutures (VWR, Cat #95057-014) prior to closing the skin with wound clips that were then removed 2 weeks post-operatively. Animals received intraperitoneal Buprenex (0.5 mg/kg) and oral Meloxicam (2.0 mg/kg) as analgesia prior to surgery and once every 24 hours post-surgery for 3 days. All surgical procedures are approved by the IACUC of Weill Cornell Medical College (Protocol #2012-0005).
as §2, §3, §4

[4] = IV twice weekly, 21 days after fracture
[5] = biomechanical testing, 21 days after fracture

B1: SLIT3: SLIT3 recombinant protein (R&D); secreted ligand of ROBO receptors (protein, UniProt O75094 34-1523, looked up)
Slit homolog 3 protein: CPTKCTCSAASVDCHGLGLRAVPRGIPRNAERLDLDRNNITRITKMDFAGLKNLRVLHLEDNQVSVIERGAFQDLKQLERLRLNKNKLQVLPELLFQSTPKLTRLDLSENQIQGIPRKAFRGITDVKNLQLDNNHISCIEDGAFRALRDLEILTLNNNNISRILVTSFNHMPKIRTLRLHSNHLYCDCHLAWLSDWLRQRRTVGQFTLCMAPVHLRGFNVADVQKKEYVCPAPHSEPPSCNANSISCPSPCTCSNNIVDCRGKGLMEIPANLPEGIVEIRLEQNSIKAIPAGAFTQYKKLKRIDISKNQISDIAPDAFQGLKSLTSLVLYGNKITEIVKGLFDGLVSLQLLLLNANKINCLRVNTFQDLQNLNLLSLYDNKLQTISKGLFAPLQSIQTLHLAQNPFVCDCHLKWLADYLQDNPIETSGARCSSPRRLANKRISQIKSKKFRCSGSEDYRSRFSSECFMDLVCPEKCRCEGTIVDCSNQKLVRIPSHLPEYVTDLRLNDNEVSVLEATGIFKKLPNLRKINLSNNKIKEVREGAFDGAASVQELMLTGNQLETVHGRVFRGLSGLKTLMLRSNLIGCVSNDTFAGLSSVRLLSLYDNRITTITPGAFTTLVSLSTINLLSNPFNCNCHLAWLGKWLRKRRIVSGNPRCQKPFFLKEIPIQDVAIQDFTCDGNEESSCQLSPRCPEQCTCMETVVRCSNKGLRALPRGMPKDVTELYLEGNHLTAVPRELSALRHLTLIDLSNNSISMLTNYTFSNMSHLSTLILSYNRLRCIPVHAFNGLRSLRVLTLHGNDISSVPEGSFNDLTSLSHLALGTNPLHCDCSLRWLSEWVKAGYKEPGIARCSSPEPMADRLLLTTPTHRFQCKGPVDINIVAKCNACLSSPCKNNGTCTQDPVELYRCACPYSYKGKDCTVPINTCIQNPCQHGGTCHLSDSHKDGFSCSCPLGFEGQRCEINPDDCEDNDCENNATCVDGINNYVCICPPNYTGELCDEVIDHCVPELNLCQHEAKCIPLDKGFSCECVPGYSGKLCETDNDDCVAHKCRHGAQCVDTINGYTCTCPQGFSGPFCEHPPPMVLLQTSPCDQYECQNGAQCIVVQQEPTCRCPPGFAGPRCEKLITVNFVGKDSYVELASAKVRPQANISLQVATDKDNGILLYKGDNDPLALELYQGHVRLVYDSLSSPPTTVYSVETVNDGQFHSVELVTLNQTLNLVVDKGTPKSLGKLQKQPAVGINSPLYLGGIPTSTGLSALRQGTDRPLGGFHGCIHEVRINNELQDFKALPPQSLGVSPGCKSCTVCKHGLCRSVEKDSVVCECRPGWTGPLCDQEARDPCLGHRCHHGKCVATGTSYMCKCAEGYGGDLCDNKNDSANACSAFKCHHGQCHISDQGEPYCLCQPGFSGEHCQQENPCLGQVVREVIRRQKGYASCATASKVPIMECRGGCGPQCCQPTRSKRRKYVFQCTDGSSFVEEVERHLECGCLACS
With B1 the “fracture healing, local delivery” value (fracture site; implanted at fracture site) was “enhances bone-fracture healing”, the “non-skeletal vascular abundance or morphology” value (fracture site; local delivery) was “did not impact” and the brain ultrastructure (fracture site; mouse, in vivo) was “did not impact”. For the same molecule, the “tube formation (tube branch numbers)” value [1] was “enhanced”, the “tube formation (tube branch numbers)” value ([1]; listed as Slit3) was “increases with increased Slit3” and the “tube formation capacity in response to ligand after Robo1 knockdown” value ([1]; EPOCs transduced with Robo1 shRNA) was “impaired their response”. For the same molecule, the “ability to induce tube formation after shRNA-mediated knockdown of YAP” value ([1]; EPOCs transduced with YAP shRNA) was “significantly reduced the ability”, the migration [2] was “enhanced migration” and the “bone fracture healing (μCT and histological analysis)” value ([3]; 5-week-old male mice, IV twice weekly, 21 days) was “enhancement of bone fracture healing; also recorded: enhances bone-fracture healing”. The “bone volume in the callus area relative to controls” value [3, 4] was about 2 fold, the “vascularization of fracture area including CD31hiEMCNhi endothelium” value [3, 4] was “increased” and the “maximum load sustained by the fracture callus” value [3, 5] was “significantly enhanced”. For the same molecule, the “stiffness of the fracture callus” value [3, 5] was “significantly enhanced”.
